± gives the standard deviation.
Assay: protein stability index of a GFP-peptide fusion (GPS, HEK-293T) (PSI 1-6); higher = more stable
Conditions: c terminus: a fixed tail appended
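Further: 24-mer peptide tiles fused after GFP, lentivirally expressed, FACS-sorted into six equal bins by GFP/DsRed ratio, decoded by Illumina sequencing, PSI is the read-weighted mean bin number.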

KKENKMTWAPKNKGGEERKAEGGE [IRX6]
protein stability index (treatment: DMSO): 5.39 ± 0.2
protein stability index (treatment: MLN4924 1 uM, 8 h): 5.51 ± 0.27

PVENIPEIILYWKHSTIFDVGENL [SLC25A25]
protein stability index (treatment: DMSO): 2.37 ± 0.41
protein stability index (treatment: MLN4924 1 uM, 8 h): 2.02 ± 0.44

APAASEGAAAPATPTPVAAALDAC [SNAP91]
protein stability index (treatment: DMSO): 5.32 ± 0.23
protein stability index (treatment: MLN4924 1 uM, 8 h): 5.18 ± 0.31

NKLWELCCQWLKPKMRSKEQILEL [ZNF449]
protein stability index (treatment: DMSO): 2.62 ± 0.35
protein stability index (treatment: MLN4924 1 uM, 8 h): 2.9 ± 0.56

RLNAYRGYCSNQLAAKALLDQKKQ [NET1]
protein stability index (treatment: DMSO): 3.25 ± 0.25
protein stability index (treatment: MLN4924 1 uM, 8 h): 3.25 ± 0.26

SRLMRRHKRRRRKQKVSRIERSSS [DVL3]
protein stability index (treatment: DMSO): 4.46 ± 0.27
protein stability index (treatment: MLN4924 1 uM, 8 h): 4.43 ± 0.09

LEEKDRVLKKQDAFYKEQLARLEE [CHCHD3]
protein stability index (treatment: DMSO): 5.04 ± 0.25
protein stability index (treatment: MLN4924 1 uM, 8 h): 5.17 ± 0.24

MDSRTVFGAWRCLLDATVAGGQTR [FCHSD1]
protein stability index (treatment: DMSO): 1.92 ± 0.4
protein stability index (treatment: MLN4924 1 uM, 8 h): 2.01 ± 0.33

RPHVHKQTEKTTRVRTVLNEKQLH [ISL2]
protein stability index (treatment: DMSO): 4.21 ± 0.098
protein stability index (treatment: MLN4924 1 uM, 8 h): 4.39 ± 0.24

EPNNIVVLLQTSPYHVDSLLQLSD [TCF25]
protein stability index (treatment: DMSO): 2.44 ± 0.3
protein stability index (treatment: MLN4924 1 uM, 8 h): 2.11 ± 0.26

ADRLVRVHGDPAVWWVSQFVKYLI [FUT8]
protein stability index (treatment: DMSO): 2.25 ± 0.35
protein stability index (treatment: MLN4924 1 uM, 8 h): 2.11 ± 0.26

GIVVWNMDVERQETPEWLDSDSCQ [WDFY2]
protein stability index (treatment: DMSO): 3.3 ± 0.2
protein stability index (treatment: MLN4924 1 uM, 8 h): 3.5 ± 0.32

ECRSSVTSDSEGAHVNTLHSGTKR [PHTF1]
protein stability index (treatment: DMSO): 4.87 ± 0.32
protein stability index (treatment: MLN4924 1 uM, 8 h): 4.88 ± 0.17

QKQRLREILEQQQQERNDTNFHGV [ZNF277]
protein stability index (treatment: DMSO): 4.53 ± 0.3
protein stability index (treatment: MLN4924 1 uM, 8 h): 4.59 ± 0.23

IRTYLGRSPLVSGDESSLLLNAAS [RHOBTB3]
protein stability index (treatment: DMSO): 2.62 ± 0.35
protein stability index (treatment: MLN4924 1 uM, 8 h): 2.46 ± 0.34

FEDEVKRLGWQQQAELQELEERLQ [MTUS2]
protein stability index (treatment: DMSO): 4.17 ± 0.4
protein stability index (treatment: MLN4924 1 uM, 8 h): 4.28 ± 0.54

LSTAASLGPSGLQNHGQHLILSRE [LCOR]
protein stability index (treatment: DMSO): 3.99 ± 0.38
protein stability index (treatment: MLN4924 1 uM, 8 h): 3.96 ± 0.16

IAEDGTKEIESQGSIPGFLISSGM [TAF7L]
protein stability index (treatment: DMSO): 4.25 ± 0.28
protein stability index (treatment: MLN4924 1 uM, 8 h): 4.21 ± 0.38

PPRTIKRTRRRLSRNRDPGRLILS [PWWP2B]
protein stability index (treatment: DMSO): 4.37 ± 0.27
protein stability index (treatment: MLN4924 1 uM, 8 h): 4.52 ± 0.35

YHRETEGEEQSQYMHVGSCQHLSS [KCNA3]
protein stability index (treatment: DMSO): 4.09 ± 0.32
protein stability index (treatment: MLN4924 1 uM, 8 h): 4.71 ± 0.47

SKYADLSDAANRNHEALRQAKQEM [PRPH]
protein stability index (treatment: DMSO): 4.77 ± 0.064
protein stability index (treatment: MLN4924 1 uM, 8 h): 4.89 ± 0.14

NLLGEAAGGQDMADSMLMQGSRGL [HDAC6]
protein stability index (treatment: DMSO): 4.1 ± 0.34
protein stability index (treatment: MLN4924 1 uM, 8 h): 4.09 ± 0.081

ALGDAFADLSQKSPELQEEFGYNA [ARFIP2]
protein stability index (treatment: DMSO): 4.6 ± 0.17
protein stability index (treatment: MLN4924 1 uM, 8 h): 4.63 ± 0.22

TGAACRLVEAVLSGEVLNGAAVVR [HDAC6]
protein stability index (treatment: DMSO): 2.13 ± 0.35
protein stability index (treatment: MLN4924 1 uM, 8 h): 2.27 ± 0.28

LRVMETKPDKAVSIIECDMNVDFD [UFD1]
protein stability index (treatment: DMSO): 3.57 ± 0.43
protein stability index (treatment: MLN4924 1 uM, 8 h): 3.53 ± 0.28

CARMLYNYGADTNTRNYEGQTPLA [ASB7]
protein stability index (treatment: DMSO): 2.63 ± 0.28
protein stability index (treatment: MLN4924 1 uM, 8 h): 2.62 ± 0.36

KELGQSQKEQGLSDNILSPVMNGG [PDZK1]
protein stability index (treatment: DMSO): 4.73 ± 0.34
protein stability index (treatment: MLN4924 1 uM, 8 h): 5.09 ± 0.28

LACGTMSSTCGQLASYPLALVRTR [SLC25A25]
protein stability index (treatment: DMSO): 1.96 ± 0.16
protein stability index (treatment: MLN4924 1 uM, 8 h): 2.36 ± 0.12

RIRSYLREVSSYPSTVGAEAQEEF [DFFB]
protein stability index (treatment: DMSO): 3.33 ± 0.16
protein stability index (treatment: MLN4924 1 uM, 8 h): 3.58 ± 0.29

MVFEVLGHHLLKWIIKSNYQGLPV [SRPK2]
protein stability index (treatment: DMSO): 2.91 ± 0.33
protein stability index (treatment: MLN4924 1 uM, 8 h): 3.12 ± 0.27

RDLKPENILVTSGGTVKLADFGLA [CDK4]
protein stability index (treatment: DMSO): 3.31 ± 0.44
protein stability index (treatment: MLN4924 1 uM, 8 h): 3.33 ± 0.27

QSHDDLSNATATPSVRKKAGSFSR [C2CD2L]
protein stability index (treatment: DMSO): 4.75 ± 0.31
protein stability index (treatment: MLN4924 1 uM, 8 h): 4.67 ± 0.2

EDSINNSLVQLQASHQQQVLPPRQ [MYBL2]
protein stability index (treatment: DMSO): 4.93 ± 0.14
protein stability index (treatment: MLN4924 1 uM, 8 h): 4.72 ± 0.19

STDTESNNEEQRSGLIYLTNHIAP [IKZF1]
protein stability index (treatment: DMSO): 4.63 ± 0.2
protein stability index (treatment: MLN4924 1 uM, 8 h): 4.81 ± 0.21

YICPDYQSYFKTIEDFQQKILLTK [KRT36]
protein stability index (treatment: DMSO): 2.33 ± 0.59
protein stability index (treatment: MLN4924 1 uM, 8 h): 2.13 ± 0.28

MTSNPITWGQIKKTTQEAEKLLER [CDK11A]
protein stability index (treatment: DMSO): 4.55 ± 0.24
protein stability index (treatment: MLN4924 1 uM, 8 h): 4.31 ± 0.25

HEAFKDELKTFRLKTRSWAGERSR [CDC25B]
protein stability index (treatment: DMSO): 3.57 ± 0.3
protein stability index (treatment: MLN4924 1 uM, 8 h): 3.8 ± 0.22

RGPLNSDRSDYFAAWGARVFSFGK [TRIM43]
protein stability index (treatment: DMSO): 2.79 ± 0.22
protein stability index (treatment: MLN4924 1 uM, 8 h): 2.76 ± 0.22

FDEKIVPILKRKLPGSDVSGRLMG [FBXO28]
protein stability index (treatment: DMSO): 2.75 ± 0.48
protein stability index (treatment: MLN4924 1 uM, 8 h): 3.48 ± 0.47

LDLRVKGILSSQAEGLANGPDVLE [EHMT1]
protein stability index (treatment: DMSO): 4.12 ± 0.2
protein stability index (treatment: MLN4924 1 uM, 8 h): 4.07 ± 0.39

REEEERERLQKEEEKRRREEEERL [ACBD3]
protein stability index (treatment: DMSO): 5.5 ± 0.35
protein stability index (treatment: MLN4924 1 uM, 8 h): 5.74 ± 0.21

DLTASHDAALLEMENNHTVAITIL [MTUS2]
protein stability index (treatment: DMSO): 2.86 ± 0.21
protein stability index (treatment: MLN4924 1 uM, 8 h): 2.85 ± 0.25

EECPAHLLEDPLCADVILVLQERV [RHOBTB2]
protein stability index (treatment: DMSO): 3.4 ± 0.42
protein stability index (treatment: MLN4924 1 uM, 8 h): 3.47 ± 0.52

VDWRRVSRLQEDPEGTENPLGVDE [SLA]
protein stability index (treatment: DMSO): 4.46 ± 0.36

METNGSTEGSRSRSRSLDIQPSSE [SPAG8]
protein stability index (treatment: DMSO): 5.54 ± 0.33
protein stability index (treatment: MLN4924 1 uM, 8 h): 5.35 ± 0.064

Reference: the supplement of paper PMC10567573
